Data set [1] has as its target HBV Cp149-WT (wild type HBV core protein assembly domain, N-terminal first 149 residues), dimer (Hepatitis B virus, adyw strain). Put plainly: SEC of assembly reactions, 100 mM NaCl, 23° C.
For data set [2] the target is unchanged. Kind of data set: SEC of capsid and dimer after 72 h assembly at 100 mM NaCl, 23° C.; self-association of Cp149 dimers.
The target is the same in data set [3]. Kind of data set: SEC of capsid and dimer after 72 h assembly at 100 mM NaCl, 23° C.; mean equilibrium dimer concentration.
The target in data set [4] is HBV wild type core protein expressed in Huh7 cells (subtype ayw) (Hepatitis B virus, subtype ayw) (UniProt P03146). Kind of data set: cell-based or functional assay.
Data set [5] deals with the molecule itself. Kind of data set: thermodynamic calculation from SEC, 23° C., 100 mM NaCl; 100 mM NaCl, 23° C.; value in the text, which differs from Table 3.
Data set [6] deals with the molecule itself. Put plainly: SEC of assembly reactions, 100 mM NaCl, 72 h, 23° C.; 100 mM NaCl, 72 h, 23° C.; ratio of WT to V124W pseudo-critical concentration.
Data set [7] deals with the molecule itself. Kind of data set: SEC of capsid and dimer after 72 h assembly at 100 mM NaCl, 23° C.; self-association of Cp149-V124W dimers; 100 mM NaCl, 23° C., SEC after 72 h equilibration; Table 3 value.

In turn, “HBV Cp149-WT (wild type HBV core protein assembly domain, N-terminal first 149 residues), dimer” yielded a pseudo-critical concentration in data set [1] of 43.6 µM. This molecule also yielded a ΔGcontact in data set [2] of -2.74 kcal/mol. Moreover, in data set [3], the KD, apparent came to 43.3 µM.

Consider “HBV V124W core protein expressed in Huh7 cells (subtype ayw) (from UniProt P03146 1-183)”, for which, in data set [4], the dlDNA yield, Southern blot of encapsidated DNA, WT:V124W = 1:1 co-transfection in Huh7 cells is 23 % of WT; the rcDNA yield, Southern blot of encapsidated DNA, WT:V124W = 1:1 co-transfection in Huh7 cells was 8 % of WT; the ssDNA yield, Southern blot of encapsidated DNA, WT:V124W = 1:1 co-transfection in Huh7 cells is 37 % of WT; the total DNA yield, Southern blot of encapsidated DNA, WT:V124W = 1:1 co-transfection in Huh7 cells is 31 % of WT.

B1: HBV Cp149-V124W (core protein assembly domain with V124W), dimer (other)
chain: MDIDPYKEFGATVELLSFLPSDFFPSVRDLLDTAAALYRDALESPEHCSPHHTALRQAILCWGDLMTLATWVGTNLEDPASRDLVVSYVNTNVGLKFRQLLWFHISCLTFGRETVLEYLVSFGWWIRTPPAYRPPNAPILSTLPETTVV
notes: also called HBV Cpdominant 1; Cpdominant 1
As to B1, in data set [5], the ΔGcont was -3.73 kcal/mol. Further, in data set [6], the “fold difference of pseudo-critical concentration against WT” value amounted to 40 fold. Besides, the ΔGcontact in data set [7] is -3.84 kcal/mol.

The values are drawn from patent US20140148381A1 (INDIANA UNIVERSITY RESEARCH AND TECHNOLOGY, published 2014).
